Tests used:
[1] = tested on: neonatal rat ventricular myocytes; test: Neonatal rat ventricular myocyte hypertrophy (cross-section area, ANF expression); assay type: cell-based; settings: for agonist-induced myocyte hypertrophy: BI-D1870 10 μmol/L, SL0101 50 μmol/L, PE, LIF or FBS, 2 days; for PE-induced hypertrophy: expressed in neonatal myocytes
Experimental: Neonatal rat myocytes isolation and culture: 1-3 day old Sprague-Dawley rats were decapitated and the excised hearts placed in 1×ADS Buffer (116 mmol/L NaCl, 20 mmol/L HEPES, 1 mmol/L NaH2PO4, 5.5 mmol/L glucose, 5.4 mmol/L KCl, 0.8 mmol/L MgSO4, pH 7.35). The atria were carefully removed and the blood washed away. The ventricles were minced and incubated with 15 mL 1×ADS Buffer containing 3.3 mg type II collagenase (Worthington, 230 U/mg) and 9 mg Pancreatin (Sigma) at 37° C. while shaking at 80 RPM. After 15 minutes, the dissociated cardiac myocytes were separated by centrifugation at 50×g for 1 minute, resuspended in 4 mL horse serum and incubated 37° C. with occasional agitation. The steps for enzymatic digestion and isolation of myocytes were repeated 10-12 times to maximize yield. The myocytes were pooled and spun down again at 50×g for 2 minutes and resuspended in Maintenance Medium (DMEM:M199, 4:1) supplemented with 10% horse serum and 5% fetal bovine serum. To remove any contaminating fibroblasts, the cells were pre-plated for 1 hour before plating on gelatin-coated tissue culture plasticware. This procedure yields >90% pure cardiac myocytes. After 1 day in culture, the media was changed to maintenance medium containing 0.1 mmol/L bromodeoxyuridine to suppress fibroblast growth. Experiments were initiated 1 day after myocyte isolation. Adenoviral infection was performed by addition of adenovirus (multiplicity of infection=5-50) to the media. Plasmids and siRNA oligonucleotides were transfected using Transfast (Promega) and Dharmafect (Thermofisher), respectively, as recommended by the manufacturers using cells cultured in maintenance medium supplemented with 4% horse serum. Starting the day after gene transduction, the cells were treated for as long as 2 days, as indicated for each experiment. Immunocytochemistry: Cultured neonatal cardiomyocytes on plastic coverslips were fixed in 3.7% formaldehyde in PBS, permeabilized with 0.3% Triton X-100 in PBS, and blocked with PBS containing 0.2% BSA and 1% horse serum for 1 hour. The slides were then sequentially incubated for 1 hour with primary and Alexa fluorescent dye-conjugated specific-secondary antibodies (Invitrogen, 1:1000) diluted in blocking buffer. The slips were washed three times with blocking buffer. 1 μg/mL Hoechst 33258 was included in the last wash stop to label nuclei. Slides were sealed in SlowFade Gold antifade buffer (Invitrogen) for fluorescent microscopy. Wide-field images were acquired using a Leica DMI 6000 Microscope. Morphometry: Morphometric data was acquired using IPLab Software. […] For adult mouse cardiac myocytes, the maximum lengths perpendicular (width) or parallel (length) to the myofibrils were measured for >100 freshly dissociated myocytes per heart.

[2] = tested on: Noonan syndrome mouse model (Raf1L613V knock-in); settings: Wu 2011; cited from earlier work
[3] = tested on: NHE1; settings: Cuello 2007; cited from earlier work
[4] = tested on: RSK; test: RSK activation in neonatal rat ventricular myocytes (pan-RSK phospho-S218 Western blot); assay type: cell-based; settings: 10 μmol/L PE, 1 hour
Source text: RSK family members can be activated in most cell types by ERK, but not c-Jun N-terminal kinases or p38 (Anjum 2008). ERK phosphorylation is permissive for PDK1 phosphorylation of the RSK N-terminal kinase domain, such that PDK1 phosphorylation of RSK S^218 is indicative of full activation of the enzyme (FIG. 4A). […] The α-adrenergic stimulation with phenylephrine (PE) induced RSK phosphorylation 3-fold by both MEK1/2-dependent (that activates ERK1/2) and MEK5-dependent (that activates ERK5) mechanisms (FIG. 22).
Immunoprecipitations: HEK293 and COS-7 cells were transfected with Lipofectamine 2000 (Invitrogen) or Polyethylenimine “Max” (Polysciences). Cells (including myocytes) were lysed in buffer (20 mmol/L HEPES, pH 7.4, 150 mmol/L NaCl, 5 mmol/L EDTA, 0.5% Triton, 50 mmol/L NaF, 1 mmol/L sodium orthovanadate, 1 mmol/L DTT, and protease inhibitors). After centrifugation at 10,000×g for 10 minutes at 4° C., the clarified extracts were used for immunoprecipitation using appropriate antibodies (10 μg purified antibody or 1-5 μL whole serum) and 20 μL protein G sepharose (Millipore, Fastflow) for 3 hours to overnight at 4° C. The beads were washed 3-5 times with lysis buffer, and the immunoprecipitated proteins were eluted with 1× Laemmli buffer for western blotting. […]

[5] = target: T1, RSK3 (Homo sapiens, UniProt Q15349); test: Surface plasmon resonance of His-RSK3 binding to immobilized His-mAKAP 1286-1833
T1 construct: bacterially expressed His-tagged mAKAP 1286 to 1833 and full-length RSK3 was analyzed by surface plasmon resonance; His; made in house; host or cells: bacteria (pET30 / pGEX-4T vectors)
T1 sequence (Q15349 whole entry): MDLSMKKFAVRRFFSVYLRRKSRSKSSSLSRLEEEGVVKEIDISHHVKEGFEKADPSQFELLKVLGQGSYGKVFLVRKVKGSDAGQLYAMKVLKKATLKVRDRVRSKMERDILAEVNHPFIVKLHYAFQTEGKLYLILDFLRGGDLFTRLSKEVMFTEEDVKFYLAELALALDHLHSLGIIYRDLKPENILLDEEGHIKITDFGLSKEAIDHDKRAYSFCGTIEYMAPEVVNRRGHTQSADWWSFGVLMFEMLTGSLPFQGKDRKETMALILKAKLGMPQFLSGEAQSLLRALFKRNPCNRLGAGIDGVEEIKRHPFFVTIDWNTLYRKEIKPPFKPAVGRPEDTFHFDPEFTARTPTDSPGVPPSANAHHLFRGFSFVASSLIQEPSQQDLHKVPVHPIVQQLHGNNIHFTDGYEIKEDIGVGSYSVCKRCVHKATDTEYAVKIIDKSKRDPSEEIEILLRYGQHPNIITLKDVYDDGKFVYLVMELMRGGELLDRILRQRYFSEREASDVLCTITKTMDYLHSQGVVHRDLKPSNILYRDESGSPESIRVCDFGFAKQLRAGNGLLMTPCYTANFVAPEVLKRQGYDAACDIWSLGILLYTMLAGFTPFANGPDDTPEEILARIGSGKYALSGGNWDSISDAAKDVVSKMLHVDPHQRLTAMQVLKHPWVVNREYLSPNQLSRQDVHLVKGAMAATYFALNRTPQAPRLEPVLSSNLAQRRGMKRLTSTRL
Experimental: Surface Plasmon Resonance: SPR analysis was performed using a BIAcore T100. 200 resonance units His-tagged mAKAP 1286-1833 were covalently immobilized using NHS (N-hydroxysuccinamide) and EDC [1-ethyl-3-(3-(dimethylamino)propyl)carbodiimide] (Biacore amine coupling kit) to the surface of a sensor chip (BIAcore type CM5). His-RSK3 analytes (6.25-200 nmol/L) in HBS buffer (10 mmol/L Hepes, pH 7.4, 150 mmol/L NaCl, and 0.005% Surfactant P20) were injected at a flow rate of 30 μL/min for 5 minutes, followed by buffer alone for another 5 minutes. Sensorgrams were processed by BIAcore T100 evaluation software.
For phosphorylated His-RSK3, 20 μg His-RSK3 was phosphorylated with 2 μg ERK2 (Millipore, 14-550) and/or PDK1 (Sigma, P7498) for 5 hours in kinase buffer (20 mmol/L MOPS, pH 7.2, 25 mmol/L β-glycerol phosphate, 5 mmol/L EGTA, 1 mmol/L sodium orthovanadate, 1 mmol/L DTT) with 0.5 mmol/L MgATP. Phospho-His-RSK3 was purified using His-binding beads and concentrated before use.

[6] = tested on: HA-RSK3 fragments, HA-RSK2; test: Co-immunoprecipitation of tagged mAKAP and RSK proteins co-expressed in COS-7 cells; assay type: binding
Experimental: (§1) Immunoprecipitations: HEK293 and COS-7 cells were transfected with Lipofectamine 2000 (Invitrogen) or Polyethylenimine “Max” (Polysciences). Cells (including myocytes) were lysed in buffer (20 mmol/L HEPES, pH 7.4, 150 mmol/L NaCl, 5 mmol/L EDTA, 0.5% Triton, 50 mmol/L NaF, 1 mmol/L sodium orthovanadate, 1 mmol/L DTT, and protease inhibitors). After centrifugation at 10,000×g for 10 minutes at 4° C., the clarified extracts were used for immunoprecipitation using appropriate antibodies (10 μg purified antibody or 1-5 μL whole serum) and 20 μL protein G sepharose (Millipore, Fastflow) for 3 hours to overnight at 4° C. The beads were washed 3-5 times with lysis buffer, and the immunoprecipitated proteins were eluted with 1× Laemmli buffer for western blotting. Western blots were developed using horseradish peroxidase-conjugated donkey secondary antibodies, Supersignal West Chemiluminescent Substrates (Thermo Scientific) and X-ray film or a Fujifilm LAS-3000 imaging system.

[7] = tested on: RSK3 and mAKAPβ; test: Co-immunoprecipitation of endogenous RSK3 with mAKAPβ complexes from PE-treated myocytes; assay type: cell-based, rat; settings: expressed in neonatal myocytes
Experimental: as §1

For CC(C)CCN1c2nc(Nc3cc(F)c(O)c(F)c3)ncc2N(C)C(=O)C1C (stereo not drawn) [BI-D1870, reference compound], which agonist-induced myocyte hypertrophy [1] is on record?
Its agonist-induced myocyte hypertrophy is “inhibited”.

Which “progression of cardiac hypertrophy cardiomyopathy and other Noonan characteristics” value [2] does the source give for O=C(NOC[C@H](O)CO)c1ccc(F)c(F)c1Nc1ccc(I)cc1F [PD0325901] here?
Its value is “attenuated progression”.

For CC(=O)OC1C(C)OC(Oc2c(-c3ccc(O)cc3)oc3cc(O)cc(O)c3c2=O)C(O)C1OC(C)=O (stereo not drawn) [SL0101, reference compound], which agonist-induced myocyte hypertrophy [1] is on record?
Its agonist-induced myocyte hypertrophy is “inhibited”.

For Cc1ccc(-c2c(C(=O)CF)n(CCCO)c3ncnc(N)c23)cc1 [fmk], which “α-adrenergic-induced NHE1 phosphorylation” value [3] is on record?
Its value is “blocked”.

For CNC[C@H](O)c1cccc(O)c1 [phenylephrine], which “induction of RSK phosphorylation” value [4] is on record?
Its value is 3 fold.

B1: mAKAP 1286 to 1833: bacterially expressed His-tagged mAKAP fragment, residues 1286 to 1833 (protein)
chain: VYSLHNVELHEDSHTPFLKSSPKFTGTTQPTVLTKSLSKDSSFSSTKSLPDLLGGSGLVRPYSCHSGDLSQNSGSESGIVSEGDNEMPTNSDMSLFSMVDGSPSNPETEHPDPQMGDAANVLEQKFKDNGESIKLSSVSRASVSPVGCVNGKAGDLNSVTKHTADCLGEELQGKHDVFTFYDYSYLQGSKLKLPMIMKQPQSEKAHVEDPLLGGFYFDKKSCKAKHQASESQPDAPPHERILASAPHEMGRSAYKSSDIEKTFTGIQSARQLSLLSRSSSVESLSPGGDLFGLGIFKNGSDSLQRSTSLESWLTSYKSNEDLFSCHSSGDISVSSGSVGELSKRTLDLLNRLENIQSPSEQKIKRSVSDMTLQSSSQKMPFAGQMSLDVASSINEDSPASLTELSSSDELSLCSEDIVLHKNKIPESNASFRKRLNRSVADESDVNVSMIVNVSCTSACTDDEDDSDLLSSSTLTLTEEELCLKDEDDDSSIATDDEIYEESNLMSGLDYIKNELQTWIRPKLSLTREKKRSGVTDEIKVNKDGGGNE
modifications: left off: small tags and cut ends
Which “decrease of RSK3 binding affinity for mAKAP” value ([5]; RSK3 previously phosphorylated by ERK) does the source give for B1 here?
The value was 5 fold.

What about the “decrease of RSK3 binding affinity for mAKAP” value ([5]; RSK3 previously phosphorylated by both ERK and PDK1) of the same molecule?
Its value is 8 fold.

And the “KD of binding to full-length RSK3” value ([5]; unphosphorylated His-RSK3)?
Its value is “nanomolar”.

B2: mAKAP RBD: main RSK3 binding domain of mAKAP, fragment encompassing residues 1694 to 1833; competing binding peptide (protein)
chain: ELSLCSEDIVLHKNKIPESNASFRKRLNRSVADESDVNVSMIVNVSCTSACTDDEDDSDLLSSSTLTLTEEELCLKDEDDDSSIATDDEIYEESNLMSGLDYIKNELQTWIRPKLSLTREKKRSGVTDEIKVNKDGGGNE
modifications: left off: small tags and cut ends
What does the source list for B2?
PE-induced hypertrophy [1]: inhibited; binding to N-terminally truncated RSK3 mutant (HA-RSK3 DN30) or HA-tagged full-length RSK2 [6]: not

B3: green fluorescent protein-mAKAP RBD fusion protein: myc-GFP-mAKAP RSK binding domain (RBD) fusion protein; mAKAP 1694-1833 (protein)
chain: B2 chain
modifications: left off: small tags and cut ends; large carriers
What does the source list for B3?
PE-induced hypertrophy [1]: markedly inhibited; association of endogenous RSK3 and mAKAPβ [7]: competed
